Experimental data as given in publication PMC2587436.

Key:
Assay in all cases: SPR
[1] = molecular target: GST-APPBP1-UBA3Arg190Ala (Cys216Ala) (human) (UniProt Q13564)
[2] = molecular target: GST-APPBP1-UBA3 (Cys216Ala) (human) (UniProt Q13564)
[3] = molecular target: GST-APPBP1-UBA3Arg190Gln (Cys216Ala) (human) (UniProt Q13564)

Substance	Kd [1] [µM]	Kd [2] [µM]	Kd [3] [µM]
NEDD8 (from UniProt Q15843 1-76) (natural protein)	5.5	0.333	3.46
NEDD8Ala72Arg (from UniProt Q15843 1-76) (natural protein)	1.66	> 10	1.02
NEDD8Ala72Gln (from UniProt Q15843 1-76) (natural protein)	> 10	8.75	> 10
NEDD8Ala72Lys (from UniProt Q15843 1-76) (natural protein)	2.97	> 10	0.886
